Results taken from article PMC10244618.
“And” between values parts separate entries of the source, which are not always exact repeats. Identical values can stand only once.

B1: NF2 (merlin) isoform 7, human, full length (507 aa, lacks exons 2-3 = isoform-1 residues 39-121; exon-16 C-terminus), P35240-4 (parent)
chain: MAGAIASRMSFSSLKRKQPKTFTVRIVTMDAEMEFNCEVKKQILDEKIYCPPEASVLLASYAVQAKYGDYDPSVHKRGFLAQEELLPKRVINLYQMTPEMWEERITAWYAEHRGRARDEAEMEYLKIAQDLEMYGVNYFAIRNKKGTELLLGVDALGLHIYDPENRLTPKISFPWNEIRNISYSDKEFTIKPLDKKIDVFKFNSSKLRVNKLILQLCIGNHDLFMRRRKADSLEVQQMKAQAREEKARKQMERQRLAREKQMREEAERTRDELERRLLQMKEEATMANEALMRSEETADLLAEKAQITEEEAKLLAQKAAEAEQEMQRIKATAIRTEEEKRLMEQKVLEAEVLALKMAEESERRAKEADQLKQDLQEAREAERRAKQKLLEIATKPTYPPMNPIPAPLPPDIPSFNLIGDSLSFDFKDTDMKRLSMEIEKEKVEYMEKSKHLQEQLNELKTEIEALKLKERETALDILHNENSDRGGSSKHNTIKKPQAQGRRPICI

Variants of: B1
Test: reverse yeast two-hybrid deep mutational scan (rY2H-seq): NF2 isoform 7 mutant library as bait mated with wild-type prey strains; selection on medium lacking adenine for non-interacting pairs; NextSeq paired-end sequencing; enrichment vs …
Conditions: yeast diploids after mating (RBait_S3 x RPrey_S3), 30 °C, selection for reporter genes on NB agar, HIGHER = WEAKER BINDING (the opposite of display enrichments): higher = stronger loss of interaction: reverse Y2H selects yeast in which bait and prey do NOT interact (growth without adenine), so a …, hits-only table, scale: rY2H score, numbering: uniprot, sequence starts at 1
[1] = with EMILIN1 (elastin microfibril interfacer 1), Q9Y6C2, human ABL2 co-expressed as the kinase-dead K35M mutant …
[2] = with EMILIN1 (elastin microfibril interfacer 1), Q9Y6C2, human tyrosine kinase ABL2 co-expressed as the active kinase …
[3] = with KDM1A (lysine-specific histone demethylase 1A; the table's label AOF2 is a gene synonym of KDM1A), O60341, human ABL2 co-expressed as the kinase-dead K35M mutant …
[4] = with KDM1A (lysine-specific histone demethylase 1A; the table's label AOF2 is a gene synonym of KDM1A), O60341, human tyrosine kinase ABL2 co-expressed as the active kinase …
[5] = with NF2 C-terminal domain (wild type; homomeric NF2-NF2 interaction), P35240, human ABL2 co-expressed as the kinase-dead K35M mutant …, partner unresolved
[6] = with PIK3R3 (phosphatidylinositol 3-kinase regulatory subunit gamma), Q92569, human tyrosine kinase ABL2 co-expressed as the active kinase …

Row | Variant | enrichment [1] | enrichment [2] | enrichment [3] | enrichment [4] | enrichment [5] | enrichment [6]
1 | T147E | 4.29 | – | – | – | – | –
2 | K340E | 2.44 and 2.85 | 4.17 and 3.5 | 1.93 and 2.13 | 1.71 and 2.96 | 2.5 and 3.18 | 5
3 | K340A | 2.47 | 2.67 | 3.4 and 3.43 | 3.04 and 2.28 | – | 1.46
4 | A333K | 1.75 | 5.66 | 4.26 and 3.03 | – | – | –
5 | A333L | 2.47 | – | 1.58 | 1.46 | – | –
6 | M292A | 6.8 | – | – | – | – | –
7 | M292S | 1.52 | – | 1.74 | – | 1.49 | 1.46
8 | T297A | 2.57 | – | – | 2.94 | – | –
9 | S55E | 6.87 | 5.24 | 5.38 | 7.48 | – | –
10 | V39G | – | 1.41 | – | – | – | –
11 | G114A | 7.29 | – | – | – | 2.02 | 3.53
12 | E337K | 2.71 | 4.3 and 3.24 | 2.29 | – | – | –
13 | E337T | 5.26 | – | – | – | – | –
14 | I171K | 2.56 | 1.76 | 4.6 | 8.42 | – | 6.85
15 | S172P | 1.73 | – | 1.94 | – | – | 2.04 and 2.73
16 | E274K | 1.67 | – | – | – | – | –
17 | A319K | 3.24 | 1.77 | 7.16 | – | – | –
18 | R293A | 1.56 | 4.55 and 5.13 | 2.38 | 6.57 | 1.81 | 10.8 and 3.63
19 | A322E | 3.28 | – | – | – | 2.97 | –
20 | S60L | 2.18 | – | 2.95 | – | – | –
21 | R328A | 2.29 | – | 1.66 | – | – | –
22 | R328E | 2.55 | – | – | – | – | 3.12
23 | A331E | – | 2.11 | – | – | 1.53 | –
24 | A331L | 2.6 and 2.58 | 3.27 | 4.61 and 1.64 | 5.02 | – | –
25 | E311A | 1.44 | – | – | – | – | –
26 | Q317E | 1.79 | – | – | – | 4.2 | –
27 | G146L | 2.08 | 6.29 | – | – | – | –

Row | Variant | enrichment [1] | enrichment [2] | enrichment [3] | enrichment [4] | enrichment [5] | enrichment [6]
28 | M343E | 2.88 and 3.18 | 3.19 | 3.76 | 2.07 and 4.72 | – | 1.45
29 | M343A | 2.55 and 1.66 | 2.55 and 2.14 | – | – | – | –
30 | D162K | 1.74 | – | – | – | – | –
31 | Q82A | 4.41 | – | 9.08 | 4.66 | 2.07 | –
32 | E259L | 1.55 | 1.72 | 3.91 and 3.57 | – | – | –
33 | E259V | 2.5 | 1.65 | 2.8 | 2.08 | 2.03 | 4.06 and 2.02
34 | E259T | 17.4 and 9.29 | 19.6 | 38.4 | – | 4.23 | –
35 | C217Y | 2.4 | 1.59 | 2.94 | – | – | –
36 | A316S | 3.61 | – | – | – | – | –
37 | E296L | 2.9 | – | – | – | – | –
38 | A155L | 2.92 and 3.34 | – | – | – | – | –
39 | N165L | 3.15 and 2.54 | 3.7 | 6 and 7.17 | 1.81 | 2.17 and 4.23 | 8.43
40 | N165A | 3.8 and 4.08 | 5.59 and 4.51 | 5.23 and 4.34 | 11.8 | 3.7 and 6.3 | –
41 | R268K | 3.47 | – | – | – | – | –
42 | E339K | 4.07 and 1.56 | 3.86 | 2.92 | 2.13 | 1.45 | 1.62
43 | E339T | 3.93 | 5.99 | 2.02 | – | 2.08 | –
44 | K66E | 2.7 | – | – | 3.77 | – | 4.55
45 | L300E | 5.44 | 5.18 | – | – | 4.73 and 3.13 | –
46 | K313A | 2.05 | – | 1.63 | 3.82 | – | 3.82
47 | D30L | 3.86 | – | – | – | – | –
48 | K88R | 1.95 | 2.74 | – | – | – | –
49 | R263T | 1.89 | – | – | – | – | –
50 | R263L | 3.17 | – | – | – | – | –
51 | L151S | 3.66 | – | 7.87 | 6.8 | 12.3 | –
52 | L151K | 3.05 | – | – | – | – | –
53 | T308E | 2.33 | – | – | – | 3.16 | –
54 | T308D | 4.89 | 2.02 | 2.33 | – | 2.47 | –

Second part, the variant after the results:

Row | enrichment [1] | enrichment [2] | enrichment [3] | enrichment [4] | enrichment [5] | enrichment [6] | Variant
55 | 3.23 | 1.72 | 1.77 and 4.25 | 2.45 | 1.43 | – | P399E
56 | 2.11 | – | – | – | – | – | R379L
57 | 1.59 | – | – | – | – | – | H491N
58 | 5.29 | 2.04 | – | – | – | – | H491A
59 | 3.83 | – | – | – | – | – | N457L
60 | 1.51 | – | 1.6 | – | – | – | L353W
61 | 8.41 | – | – | – | – | – | L353T
62 | 1.88 | 2.88 | – | – | – | – | P413L
63 | 2.21 | – | – | – | – | – | D411K
64 | – | 1.65 | 2.37 | – | 2.83 | 3 and 1.89 | E382A
65 | 2.77 | 1.79 and 2.41 | – | – | 1.47 and 2.48 and 1.86 | – | E382K
66 | 1.92 | – | – | – | – | – | E382G
67 | 2.36 | – | – | – | 2.38 | – | R384A
68 | 1.72 | 3.25 | – | 4.1 and 4.23 | – | 2.99 | E367A
69 | 6.79 | 1.94 | – | – | – | – | E367L
70 | 8.39 | 15.7 | – | – | 3.87 and 6.52 | – | Y398E
71 | 1.39 and 2 | 1.38 and 1.78 | 1.87 | 2.06 | – | – | Y398F
72 | 1.89 | 2.45 | – | – | – | 1.96 | Y398L
73 | 2.09 | 3.21 and 3.14 | 4.62 | 3.57 and 4.04 | – | – | P409A
74 | 6.34 and 11.1 | – | 10.3 | – | – | – | E344G
75 | 4.18 and 2.17 | 2.34 and 1.8 | – | 2.31 | – | – | E344L
76 | 1.78 and 4.12 | 3.82 and 2.77 | 1.57 | – | – | 4.06 | E344K

Row | enrichment [1] | enrichment [2] | enrichment [3] | enrichment [4] | enrichment [5] | enrichment [6] | Variant
77 | 3.4 | – | – | – | 5.67 | 10.3 | G486K
78 | 2.27 | 3.86 and 4.2 | 2.24 | – | – | – | S483A
79 | 1.46 | 1.83 | – | 2.07 | – | 5.44 | Q387L
80 | 2.04 | – | – | – | 2.35 | – | D420A
81 | 6.81 | – | 6.54 | – | – | – | I418L
82 | 1.67 | – | 1.67 | – | – | – | I418K
83 | 4.94 | 10.4 | – | 6.12 | – | – | A381K
84 | – | 1.42 | – | – | – | – | A381E
85 | 2.87 and 2.64 | – | 2.17 | – | – | – | T397R
86 | 2.38 | – | – | – | – | 5.15 | D374K
87 | 5.91 | – | – | – | – | – | K490E
88 | 2.14 | – | 1.54 | – | – | – | E360G
89 | 3.02 | – | – | – | – | – | E360K
90 | 5.41 | – | – | – | – | – | I463A
91 | 2.06 | – | – | – | – | 2.03 | I412L
92 | 2.67 | 3.34 | – | – | – | – | I412A
93 | 8.81 | 3.88 | – | – | – | – | R471E
94 | 3.21 | – | 1.93 | – | – | – | L422K
95 | 2.38 | – | – | 4.48 | – | – | D484L
96 | 3.84 and 3.98 | – | 10.5 and 10.2 | – | 5.98 | – | A368K
97 | 2.21 | 2.34 | – | 5.64 | 2.98 | – | P497L
98 | 2.08 | – | – | – | 3.07 | – | Q376L
